Results taken from patent US7608412.

Target: GST-aPKCt
Experiment: co-immunoprecipitation from HEK cells transfected with HA-GSK3β, GST-aPKCt and myc-p62; anti-HA IP, anti-GST blot, densitometry; with against without p62

Chain of Hemagglutinin (HA)-tagged GSK3β (enzyme) (P49841 whole entry): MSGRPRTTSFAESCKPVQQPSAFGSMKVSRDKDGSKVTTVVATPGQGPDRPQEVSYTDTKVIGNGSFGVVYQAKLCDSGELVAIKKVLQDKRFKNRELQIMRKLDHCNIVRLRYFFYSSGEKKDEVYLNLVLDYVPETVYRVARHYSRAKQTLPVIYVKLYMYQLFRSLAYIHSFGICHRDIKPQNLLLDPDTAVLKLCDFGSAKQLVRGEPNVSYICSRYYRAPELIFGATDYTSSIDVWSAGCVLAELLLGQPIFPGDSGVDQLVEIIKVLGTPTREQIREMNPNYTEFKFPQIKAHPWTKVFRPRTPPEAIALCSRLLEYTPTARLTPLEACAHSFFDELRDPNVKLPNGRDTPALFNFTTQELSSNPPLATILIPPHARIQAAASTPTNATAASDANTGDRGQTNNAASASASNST

Substance: Hemagglutinin (HA)-tagged GSK3β (enzyme)
- fold enhancement of the interaction in the presence of p62: 2 fold
